Test results taken from patent US20260193317A1, “COMBINATION THERAPY WITH ACTRIIB RECEPTOR VARIANTS AND GLP-1 AGONISTS” (35PHARMA Inc., priority 2023, published 2026).

T1: BMP-9 (Homo sapiens, UniProt Q9UK05)
T1 sequence (Q9UK05 320-429): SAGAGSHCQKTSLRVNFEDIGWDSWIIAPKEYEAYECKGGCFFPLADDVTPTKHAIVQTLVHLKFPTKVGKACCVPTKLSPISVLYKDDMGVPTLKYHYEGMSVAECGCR


Experiments:
TGFβ superfamily ligands = assay: Neutralization profile across TGFβ superfamily ligands (HEK293 and HepG2 reporter assays, summary); assay type: cell-based, human
Description: Potency testing by neutralization on cell-based assays. Characterization of the activin A, activin B, GDF-8, and GDF-11 inhibition potency (IC50) of the fusion proteins was performed using a cell-based reporter assay. TGFβ-reporter HEK293 cells were obtained from InvivoGen (San Diego, CA, cat. no. hkb-tgfb) and were maintained following the manufacturer's instructions. Briefly, cells were grown in high-glucose DMEM, containing 10% heat-inactivated FBS, 30 μg/mL blasticidin, 250 μg/mL hygromycin B, and 100 μg/mL zeocin (hereafter, “growth medium”). Once the cells reached 70-80% confluence, they were detached in growth medium by gently tapping on the flask. For all assays, cells were seeded in 96-well plates at a density of 20,000 cells per well in growth medium. Cells were left to attach for 10 minutes at room temperature (RT) prior to being transferred to a 37° C. incubator (5% CO2) overnight. The next day, treatments were prepared by combining the appropriate concentration of agent with activin A, activin B, GDF-8, or GDF-11 for 30 min at RT (shaking at 150 rpm). Treatments were conducted in high-glucose DMEM (serum-free and with no selection agents), and the final concentration of cytokine (ligand) was 0.3 nM. Growth medium was removed from the culture plates, and cells were treated with the appropriate mixes of fusion protein and cytokine. Treatment duration was for 18-22 h at 37° C. (5% CO2). All treatments were performed in technical duplicates and at least one or two independent experiments were conducted for each cytokine. At the end of the treatment period, supernatants were transferred to a new plate, and centrifuged at 300 RPM for 3 min. Forty microlitres of supernatant from each condition was transferred to a new plate, into which 180 μL of Quanti-Blue reagent (InvivoGen, cat. no. rep-qbs) was added. Quanti-Blue reagent was prepared following the manufacturer's instructions. Samples were incubated for 45 min at 37° C. At the end of the incubation, absorbance was read at 650 nm. The data were plotted in GraphPad Prism, which was used to calculate IC50 values as a non-linear regression.
Characterization of the BMP-9 and BMP-10 inhibition potency (IC50) of the fusion proteins was performed using a second cell-based reporter assay. Human hepatic HepG2 cells were transfected with a SEAP-encoding plasmid, in which SEAP expression is under the control of the murine Id1 promoter. A stable pool was generated from this transfection. Cells were grown in EMEM, containing 10% heat-inactivated FBS and 200 μg/mL zeocin (hereafter, “HepG2 growth medium”). […] For all assays, cells were seeded in 96-well plates at a confluence of 100,000 cells per well in HepG2 growth medium. Cells were left to attach for 10 minutes at RT prior to being transferred to a 37° C. incubator (5% CO2) overnight. The next day, treatments were prepared in EMEM (2.5% heat-inactivated FBS and with no selection agents) by combining the appropriate concentration of agent with BMP-9 or BMP-10 for 30 min at RT (shaking at 150 rpm). Treatments were conducted in EMEM (2.5% heat-inactivated FBS and with no selection agents), and the final concentration of BMP-9 and BMP-10 was 2 ng/mL and 40 ng/mL, respectively. HepG2 growth medium was removed from the culture plates, and cells were treated with the appropriate mixes of fusion protein and cytokine. Treatment duration was for 20-24 h at 37° C. (5% CO2). […]

BMP-9 = biological target: T1, BMP-9; assay: Small-scale BMP-9 ELISA with CHO supernatants; assay type: binding; conditions: BMP-9 10 ng/mL
Description: Small-scale testing of ActRIIB-ECD fusion proteins. Additional investigation of a series of exemplary agents was performed using proteins expressed in CHO cells. Briefly, DNA encoding the ActRIIB-ECD-Fc fusion constructs was transfected in cells seeded in 12-well plates in a final volume of 1 ml. After 7 days, the supernatant was harvested, clarified, and the amount of expressed protein in each well was quantified using standard methods. The potency of each agent for inhibition of activin A, BMP-9 and BMP-10 was determined in three separate assays.
The next day, the plate was washed three times. […] Expressed proteins in the supernatants were diluted 1 in 2 in assay diluent (0.5% BSA, 0.05% tween-20 in PBS) and 100 μl was added to the 96-well plate in technical duplicates. After a 1.5-hour incubation at RT, the plate was washed three times. […] In this assay, a loss of signal indicates less binding of the exemplary agent to BMP-9. Results are expressed as a % of the signal obtained with wild-type ActRIIB-Fc (P75).

[1] = SEC-HPLC monomer and HMW content of purified fusion proteins; assay type: physicochemical; conditions: after Protein A purification
From the text: Given that protein aggregation can be indicative of reduced conformational stability and decreased activity, Size-Exclusion Chromatography-High Performance Liquid Chromatography (SEC-HPLC) was used to determine the purity of each ActRIIB-ECD construct. This method measured the percentage of intact monomeric species as well as the presence of aggregates and/or degradation products.
All proteins expressed efficiently in CHO and/or 293 cells and purification efficiency of each using Protein A affinity chromatography was similar.

[2] = test system: diet-induced obese (DIO) mice; assay: Body composition and metabolism in diet-induced obese (DIO) mice; assay type: in vivo
Description: Experiments were performed to assess the effects of P1229 on body composition and metabolism in diet-induced obese (DIO) mice. DIO mice were purchased from Jackson Laboratories (#380050). Briefly, mice were fed a high-fat diet (HFD, 60% kcal from fat) from 6 weeks of age until 22 weeks of age (total of 16 weeks on the HFD). […] After 3 weeks of treatments, some animals were sacrificed and scanned by EchoMRI […] (FIGS. 11A-F), while others were sacrificed for tissue collection and RNA analysis. Animals were maintained on the HFD throughout the acclimatization and treatment periods. The murine version of bimagrumab used for these experiments comprises the heavy chain amino acid sequence of SEQ ID NO: 376 and the light chain sequence of SEQ ID NO: 377.

| BMP-9 binding, ELISA signal relative to P75 (BMP-9) | Molecule | improved potency on activin A, GDF-8, and GDF-11 relative to P75 (TGFβ superfamily ligands) | high molecular weight (HMW) content (SEC-HPLC) [1] | monomer content (SEC-HPLC) [1] | hepatic Ahsg expression [2] | hepatic Fgf21 expression [2] | Mss51 gene expression in gastrocnemius muscle ([2]; 3 weeks) | ratio of lean mass to fat mass ([2]; 3 weeks) | fat mass and lean mass (EchoMRI) ([2]; 3 weeks s.c., P75, P1229 25 mg/kg twice weekly, P1373 5, 20, 50 mg/kg twice weekly, P1307 20 mg/kg weekly) | impact of modifications in the Fc sequence on activin A, activin B, GDF-8, and GDF-11 potency (TGFβ superfamily ligands; all ligands) | impact of modifications in the Fc sequence on BMP-9 and BMP-10 potency (TGFβ superfamily ligands; both ligands) |
| --- | --- | --- | --- | --- | --- | --- | --- | --- | --- | --- | --- |
| very low BMP-9 binding | P1229: hActRIIB L33W, 14 aa linker, IgG1-DL Fc; SEQ ID 211 | ~ 4 fold | 3% | 97% | reduced Ahsg expression | reduced | reduced Mss51 gene expression | higher | fat loss with concomitant lean mass gain | – | – |
| near-undetectable binding to BMP-9 | P1372: hActRIIB L33W, 14 aa linker, IgG1 YTE-DL Fc; SEQ ID 231 (protein) ETRECIYYNANWELERTNQSGLERCEGEQDKRWHCYASWRNSSGTIELVKKGCWLDDFNCYDRQECVATEENPQVYFCCCEGNFCNERFTHLPEAGGPEVTYEPPPTGGGGSGGGGSGGGGTHTCPPCPAPELLGGPSVFLFPPKPKDTLYITREPEVTCVVVDVSHEDPEVKFNWYVDGVEVHNAKTKPREEQYNSTYRVVSVLTVLHQDWLNGKEYKCKVSNKALPAPIEKTISKAKGQPREPQVYTLPPSRDELTKNQVSLTCLVKGFYPSDIAVEWESNGQPENNYKTTPPVLDSDGSFFLYSKLTVDKSRWQQGNVFSCSVMHEALHNHYTQKSLSLSPG | – | 1% | 99% | – | – | – | – | – | comparable to P1229 | comparable to P1229 |
